B1: FGFR2 parental antibody F (antibody, V domains shown)
VH: QVQLVQSGAEVKKPGESLKISCKGSGYSFTNYYIHWVRQMPGKGLEWMGAIYPDNSDTTYSPSFQGQVTISADKSISTAYLQWSSLKASDTAMYYCARGADIWGQGTLVTVSS
VL: DIQMTQSPSSLSASVGDRVTITCRASQDIDPYLSNWYQQKPGKAPKLLIYDASNLQSGVPSRFSGSGSGTDFTLTISSLQPEDFATYYCQQTTSHPYTFGQGTKVEIK
B2: FGFR2 parental antibody B (antibody, V domains shown)
VH: QIQLVQSGPELKKPGETVKISCKASGYTFTDFGMNWMKQAPGKGFKWMGWINTSTGESTYADDFKGRFAFSLETSASTAYLQINNLKNEDMATYFCARNSYYGGSYGYWGQGTTLTVSS
VL: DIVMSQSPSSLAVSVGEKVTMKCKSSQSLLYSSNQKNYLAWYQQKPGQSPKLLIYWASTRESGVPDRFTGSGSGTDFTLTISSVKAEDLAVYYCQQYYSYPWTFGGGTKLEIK
B3: FGFR2 parental antibody A (antibody, V domains shown)
VH: EVQLLESGGGLVQPGGSLRLSCAASGFTFSSYAMSWVRQAPGKGLEWVSAISGSGTSTYYADSVKGRFTISRDNSKNTLYLQMNSLRAEDTAVYYCARVRYNWNHGDWFDPWGQGTLVTVSS
VL: QSVLTQPPSASGTPGQRVTISCSGSSSNIGNNYVSWYQQLPGTAPKLLIYENYNRPAGVPDRFSGSKSGTSASLAISGLRSEDEADYYCSSWDDSLNYWVFGGGTKLTVL
B4: FGFR2 parental antibody E (antibody, V domains shown)
VH: QVQLVQSGAEVKKPGSSVKVSCKASGYIFTTYNVHWVRQAPGQGLEWIGSIYPDNGDTSYNQNFKGRATITADKSTSTAYMELSSLRSEDTAVYYCARGDFAYWGQGTLVTVSS
VL: DIQMTQSPSSLSASVGDRVTITCKASQGVSNDYAWYQQKPGKAPKLLIYSASYRYTGVPSRFSGSGSGTDFTFTISSLQPEDIATYYCQQHSTTPYTFGQGTKLEIK
B5: FGFR2 parental antibody C (antibody, V domains shown)
VH: QVQLVESGGGLVKPGGSLRLSCAASGFTFSSYALSWVRQAPGKGLEWVGRIRSKIDGGTTDYAAPVKGRFTISRDDSKNTLYLQMNSLKTEDTAVYYCARDRSPSDSSAFAIWGQGTLVTVSS
VL: DIELTQPPSVSVSPGQTASITCSGDNLGSQYVDWYQQKPGQAPVLVIYDDNDRPSGIPERFSGSNSGNTATLTISGTQAEDEADYYCQSWDSLSVVFGGGTKLTVL
B6: FGFR2 parental antibody D (antibody, V domains shown)
VH: EVQLVESGGGLVQPGGSLRLSCAASGFPFTSTGISWVRQAPGKGLEWVGRTHLGDGSTNYADSVKGRFTISADTSKNTAYLQMNSLRAEDTAVYYCARTYGIYDTYDMYTEYVMDYWGQGTLVTVSS
VL: DIQMTQSPSSLSASVGDRVTITCRASQDVDTSLAWYKQKPGKAPKLLIYSASFLYSGVPSRFSGSGSGTDFTLTISSLQPEDFATYYCQQSTGHPQTFGQGTKVEIK

target: FGFR2 on SNU16 cells (FGFR2 amplification) (human (endogenous in SNU16), UniProt P21802 22-821); test: FACS; apparent Kd, SNU16 cells
Sequence (P21802 22-821): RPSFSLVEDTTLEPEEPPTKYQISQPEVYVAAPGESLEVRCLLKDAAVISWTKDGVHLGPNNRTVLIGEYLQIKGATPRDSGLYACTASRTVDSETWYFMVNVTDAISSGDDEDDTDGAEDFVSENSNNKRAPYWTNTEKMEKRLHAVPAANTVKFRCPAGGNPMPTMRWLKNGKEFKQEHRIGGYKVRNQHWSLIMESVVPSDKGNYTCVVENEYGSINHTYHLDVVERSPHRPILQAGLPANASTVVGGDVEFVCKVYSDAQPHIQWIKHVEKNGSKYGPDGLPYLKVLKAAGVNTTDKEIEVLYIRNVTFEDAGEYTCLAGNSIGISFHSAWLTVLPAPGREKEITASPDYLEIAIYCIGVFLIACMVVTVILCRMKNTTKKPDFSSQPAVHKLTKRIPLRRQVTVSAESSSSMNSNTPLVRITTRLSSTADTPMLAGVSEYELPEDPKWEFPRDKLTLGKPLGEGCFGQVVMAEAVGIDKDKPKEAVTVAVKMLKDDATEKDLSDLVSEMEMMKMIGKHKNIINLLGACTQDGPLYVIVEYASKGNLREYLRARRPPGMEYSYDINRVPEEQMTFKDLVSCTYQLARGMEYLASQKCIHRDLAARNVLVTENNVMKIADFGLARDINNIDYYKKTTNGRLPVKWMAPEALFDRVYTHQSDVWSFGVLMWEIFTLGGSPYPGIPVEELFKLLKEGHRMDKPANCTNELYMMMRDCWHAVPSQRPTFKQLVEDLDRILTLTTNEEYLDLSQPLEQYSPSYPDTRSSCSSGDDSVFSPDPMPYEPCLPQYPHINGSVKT

Going from B1 to B2, the Kd rises from 9.4 nM to 32.8 nM (3.5-fold). The first binds more tightly here.

Going from B3 to B4, the Kd rises from 0.76 nM to 1.77 nM (2.3-fold).

Compared with B5, B6 is 13-fold higher in Kd: 0.15 nM for the first, 1.99 nM for the second.
